How the values were obtained:
[1] = target: Msf 1-203 KIK66-68AIA (Neisseria meningitidis strain H44/76); experiment: ELISA; Msf constructs (or control protein) coated at 3 μM in carbonate buffer pH 9.6; aVn 74 nM in PBS overlaid 1 h at RT; bound aVn detected with rabbit polyclonal anti-vitronectin
[2] = target: Msf 1-203 K60A (Neisseria meningitidis strain H44/76); experiment: SDS-PAGE of unheated samples with Western blot; purified recombinant Msf proteins not heated before SDS-PAGE; detected with anti-Msf polyclonal antibody; bands near the trimeric molecular weight
[3] = target: Msf 1-203 KIK66-68AIA (Neisseria meningitidis strain H44/76); experiment: as above
[4] = target: Msf 1-203 KK79-80AA (Neisseria meningitidis strain H44/76); experiment: as above
[5] = target: Human vitronectin in its unfolded, activated form (human); experiment: ELISA; aVn coated at 74 nM; Msf constructs overlaid at 3 μM; bound Msf detected with rabbit anti-Msf polyclonal antiserum
[6] = target: Recombinant Msf 1-422 construct lacking amino acids 4-82 (Neisseria meningitidis strain H44/76); experiment: SDS-PAGE of unheated samples with Western blot; purified recombinant Msf proteins not heated before SDS-PAGE; detected with anti-Msf polyclonal antibody; bands near the trimeric molecular weight
[7] = target: Recombinant Msf fragment Msf 1-86 (strain H44/76) (Neisseria meningitidis strain H44/76); experiment: SEC; HiLoad 16/60 Superdex 200 in 50 mM Tris pH 8, 200 mM NaCl; mass from peak elution volume against protein standards
[8] = target: Recombinant Msf fragment Msf 1-203 (strain H44/76) (Neisseria meningitidis strain H44/76); experiment: as above
[9] = target: Recombinant Msf fragment Msf 1-422 (strain H44/76) (Neisseria meningitidis strain H44/76); experiment: as above
[10] = target: Recombinant Msf fragment Msf 197-422 (strain H44/76) (Neisseria meningitidis strain H44/76); experiment: SDS-PAGE of unheated samples with Western blot; purified recombinant Msf proteins not heated before SDS-PAGE; detected with anti-Msf polyclonal antibody; bands near the trimeric molecular weight

“Human vitronectin in its unfolded, activated form (natural protein)” gave a reduction in Vn binding against Msf 1-203 [1] of 45%.
For Msf 1-203 K60A (domain or fragment), the stoichiometry N [2] was 3.
With “Msf 1-203 KIK66-68AIA (domain or fragment)” the stoichiometry N [3] was 3.
Substance “Msf 1-203 KK79-80AA (domain or fragment)” has a stoichiometry N [4] of 3.
Work on “Recombinant Msf 1-422 construct lacking amino acids 4-82 (domain or fragment)” yielded a fold reduction of binding against Msf 1-422 [5] of 4 fold and a stoichiometry N [6] of 3.
“Recombinant Msf fragment Msf 1-86 (strain H44/76) (domain or fragment)” gave a stoichiometry N [7] of 3.
For “Recombinant Msf fragment Msf 1-203 (strain H44/76) (domain or fragment)”, the stoichiometry N [8] was 3.
With “Recombinant Msf fragment Msf 1-422 (strain H44/76) (domain or fragment)” the stoichiometry N [9] was 3.
Work on “Recombinant Msf fragment Msf 197-422 (strain H44/76) (domain or fragment)” yielded a fold lower binding than Msf 1-422 [5] of 6 fold and a stoichiometry N [10] of 3.
